Key:
Peptide-7 [1] = target: T1, Peptide-7 (human, phosphothreonine 212, phosphoserine 214 (tau 2N4R numbering); SCBiot and dPEG4 at the N-terminus; amide at the C-terminus); test: SPR ProteOn, peptide captured, Fab as analyte; Peptide-7, phosphorylated at 212/214
Description: (§1) The binding affinity of PT3 Fab towards each of the fourteen tau phosphopeptides shown in Table 6 was assessed by surface plasmon resonance (SPR) using a Bio-Rad ProteOn XPR36. Peptides were synthesized by standard chemical methods (New England Peptide) with short-chain biotin and a PEG4 moiety at the N-terminus. Biotinylated peptide was captured on a neutravidin-coated NLC biosensor chip and PT3 Fab was flowed over the surface to measure kinetic parameters.
(§2) All experiments were performed at 25° C. using phosphate buffered saline, pH 7.4, 0.005% Tween 20 (PBST) as both running buffer and sample dilution buffer. Prior to running samples, the NLC chip was conditioned by running PBST over the chip surface for 1 h. Approximately 5-10 RU of peptide was captured on the chip surface by diluting peptide to 10 ng/mL in PBST and injecting over the flow channels at 30 μL/min for 100 s. Serial dilutions of PT3 Fab (1.1-90 nM) were analyzed and, with the exception of Peptide-8, each concentration was measured in duplicate. After capture of peptides, the antibody titration was injected at 60 μL/min for 3 minutes (association phase), followed by 300 s of buffer only (dissociation phase).
(§3) The data were double referenced by subtraction of the interspot response and the curves generated by the buffer-only injection. […] The data were analyzed using a simple Langmuir 1:1 binding model.

Peptide-2 [2] = target: T2, Peptide-2 (human, phosphothreonine 212, phosphothreonine 217 (tau 2N4R numbering); short chain biotin (SCBiot) and dPEG4 at the N-terminus; amide at the C-terminus); test: SPR ProteOn, peptide captured, Fab as analyte; range of n=2; upper end of n=2 range
T2 construct: also called pT212/pT217-tau peptide (Peptide-2)
T2 sequence (peptide, as listed by the source): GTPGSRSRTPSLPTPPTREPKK
Description: as §1, §2
(§4) The data were double referenced by subtraction of the interspot response and the curves generated by the buffer-only injection. The chip surface was regenerated using a single injection of 0.85% phosphoric acid at 30 μL/min for 100 s contact time, followed by four injections of running buffer before the next antibody titration injection. The data processing and kinetic analysis were done using the instrument software. The data were analyzed using a simple Langmuir 1:1 binding model.

Peptide-4 = Peptide-4 (human, phosphoserine 210, phosphothreonine 217 (tau 2N4R numbering); SCBiot and dPEG4 at the N-terminus; amide at the C-terminus); test: as above
Description: as §1, §2, §4

Peptide-5 = Peptide-5 (human, phosphoserine 210, phosphoserine 214, phosphothreonine 217 (tau 2N4R numbering); SCBiot and dPEG4 at the N-terminus; amide at the C-terminus); test: as above
Description: as §1, §2, §4

Peptide-6 [3] = target: T3, Peptide-6 (human, phosphothreonine 217 (tau 2N4R numbering); SCBiot and dPEG4 at the N-terminus; amide at the C-terminus); test: as above
Description: as §1, §2, §4

Peptide-7 [4] = target: T1, Peptide-7; test: as above
Description: as §1, §2, §4

Peptide-3 = Peptide-3 (human, phosphoserine 214, phosphothreonine 217 (tau 2N4R numbering); SCBiot and dPEG4 at the N-terminus; amide at the C-terminus); test: SPR ProteOn, peptide captured, Fab as analyte; Peptide-3, phosphorylated at 214/217; n=3
Description: as §1, §2, §3

Peptide-6 [5] = target: T3, Peptide-6; test: SPR ProteOn, peptide captured, Fab as analyte; range of n=2; Peptide-6 (pT217 only); lower end of n=2 range
Description: as §1, §2, §3

Peptide-1 = target: T4, Peptide-1 (human, phosphothreonine 212, phosphoserine 214, phosphothreonine 217 (tau 2N4R numbering); short chain biotin (SCBiot) and dPEG4 at the N-terminus; amide at the C-terminus); test: SPR ProteOn, peptide captured, Fab as analyte; range of n=2; Peptide-1 (pT212/pS214/pT217); lower end of n=2 range
T4 construct: also called tau peptide phosphorylated at T212/S214/T217
Description: as §1, §2, §3

Peptide-2 [6] = target: T2, Peptide-2; test: SPR ProteOn, peptide captured, Fab as analyte; range of n=2; Peptide-2 (pT212/pT217); Table 12 run; lower end of n=2 range
Description: (§5) A subset of HFA-PT3 monoclonal antibody variants, selected based on biophysical characterization and ELISA binding to PHF, were analyzed by Surface Plasmon Resonance (SPR) with a ProteOn XPR36 for binding to the following phosphopeptides: pT212/pT217-tau peptide (Peptide-2, SEQ ID NO: 48) and pT212-tau peptide (Peptide-8, SEQ ID NO: 54). All experiments were performed at 25° C. using PBST, pH 7.4, (Bio-Rad Cat#176-2720) as both running buffer and sample dilution buffer.
(§6) Fab/peptide binding. Biotinylated peptide was captured on a neutravidin-coated NLC biosensor chip pre-conditioned with PBST, and Fab was flowed over the surface to measure kinetic parameters. Approximately 5-10 RU of peptide was captured on the chip surface by diluting peptide to 10 ng/mL in PBST and injecting over the flow channels at 30 μL/min for 100 s. Serial dilutions of PT3 Fab (1.1 nM to 90 nM) were injected at 60 μL/min for 3 minutes (association phase), followed by 300 s of buffer only (dissociation phase).
(§7) Data were double referenced by subtraction of the interspot response, and the curves generated by the buffer only injection. The chip surface was regenerated with 0.85% phosphoric acid, followed by PBST injection before the next antibody titration injection. Data processing and analysis were performed using instrument software. The data were fit using a simple Langmuir 1:1 binding model.

Peptide-2 [7] = target: T2, Peptide-2; test: SPR ProteOn, peptide captured, Fab as analyte; range of n=2; Peptide-2 (pT212/pT217); Table 12 run; upper end of n=2 range
Description: as §5, §6, §7

B1: PT3 Fab (B187) (Fab, V domains shown)
VH: EVKLVESGGDLVKPGGSLKLSCAASGFTFSSYAMSWVRQNPEKRLEWVASISKGGNTYYPNSVKGRFTISRDNARNILYLQMSSLRSEDTALYYCARGWGDYGWFAYWGQVTLVTVSA
VL: DIKMTQSPSSMYASLGERVTITCKASQDINRYLNWFQQKPGKSPKTLIYRANRLLDGVPSRFSGSGSGQDYSLTISSLDYEDMGIYYCLQYDEFPLTFGDGTKLELK
notes: Chimeric Fab: mouse variable regions, human IgG1/kappa constant region, 6xHis tag at the C-terminus of the heavy chain; also called mouse parental Fab of PT3
Peptide-7 [1]
  Kd: 13.5 nM
Peptide-2 [2]
  koff: 0.000245 s⁻¹
  kon: 982000 M⁻¹ s⁻¹
Peptide-4
  koff: 0.00627 s⁻¹
  kon: 968000 M⁻¹ s⁻¹
Peptide-5
  koff: 0.00598 s⁻¹
  kon: 863000 M⁻¹ s⁻¹
Peptide-6 [3]
  koff: 0.00625 s⁻¹
  kon: 558000 M⁻¹ s⁻¹
Peptide-7 [4]
  koff: 0.0056 s⁻¹
  kon: 487000 M⁻¹ s⁻¹
Peptide-3
  Kd: 5.57 nM
Peptide-6 [5]
  Kd: 10.9 to 11.9 nM
Peptide-1
  Kd: 0.14 to 0.38 nM
Peptide-2 [6]
  Kd: 0.0738 to 0.101 nM
Peptide-2 [7]
  Kd: 0.0738 to 0.101 nM

From patent US20230047413A1 (Janssen / Centocor, published 2023)
